Measurements from patent US20090263894A1 (AbbVie / Abbott, published 2009).
Where two headings read alike, the source gives them in different places.

T1: human NGAL (C87S) produced in E. coli, NGAL(+)mut8 (human, UniProt P80188 21-198, 15N/2H or 13C/15N isotope label (NMR, Example 8); BHQ-10S quencher label (KD titrations, Example 9))
T1 construct: also called BHQ-NGAL; isotope-labeled human NGAL
T1 chain: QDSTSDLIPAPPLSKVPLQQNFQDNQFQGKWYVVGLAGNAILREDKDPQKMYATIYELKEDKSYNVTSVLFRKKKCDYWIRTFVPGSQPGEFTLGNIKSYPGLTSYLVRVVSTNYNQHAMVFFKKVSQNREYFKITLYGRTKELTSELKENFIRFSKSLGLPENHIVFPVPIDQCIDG

T2: NGAL rAg S112A displayed on yeast (human, UniProt P80188 21-198)
T2 construct: Yeast display AGA2 fusion as m5
T2 chain: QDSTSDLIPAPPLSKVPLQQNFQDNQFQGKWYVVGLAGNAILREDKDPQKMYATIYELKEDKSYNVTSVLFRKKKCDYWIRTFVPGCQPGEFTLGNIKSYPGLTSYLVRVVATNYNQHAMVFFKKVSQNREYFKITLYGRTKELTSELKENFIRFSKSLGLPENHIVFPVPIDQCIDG

T3: NGAL rAg Q117A displayed on yeast (human, UniProt P80188 21-198)
T3 construct: Yeast display AGA2 fusion as m5
T3 chain: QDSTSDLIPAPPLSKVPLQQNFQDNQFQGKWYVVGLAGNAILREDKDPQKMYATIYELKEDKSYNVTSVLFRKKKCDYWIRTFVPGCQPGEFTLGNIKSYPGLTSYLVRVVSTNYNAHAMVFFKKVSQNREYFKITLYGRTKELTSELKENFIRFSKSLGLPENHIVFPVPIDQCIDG

T4: NGAL rAg H118A displayed on yeast (human, UniProt P80188 21-198)
T4 construct: Yeast display AGA2 fusion as m5
T4 chain: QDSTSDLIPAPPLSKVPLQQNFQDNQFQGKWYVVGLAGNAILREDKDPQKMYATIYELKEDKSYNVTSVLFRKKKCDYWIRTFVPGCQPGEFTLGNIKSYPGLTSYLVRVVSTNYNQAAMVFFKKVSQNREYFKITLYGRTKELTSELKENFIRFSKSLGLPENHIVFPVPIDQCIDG

T5: NGAL rAg S158A displayed on yeast (human, UniProt P80188 21-198)
T5 construct: Yeast display AGA2 fusion as m5
T5 chain: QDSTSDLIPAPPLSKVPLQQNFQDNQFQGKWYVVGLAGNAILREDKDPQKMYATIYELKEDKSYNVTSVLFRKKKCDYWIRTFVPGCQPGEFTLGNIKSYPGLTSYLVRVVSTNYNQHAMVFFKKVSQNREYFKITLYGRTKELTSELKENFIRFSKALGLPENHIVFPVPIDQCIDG

T6: NGAL rAg S14A displayed on yeast (human, UniProt P80188 21-198)
T6 construct: Yeast display AGA2 fusion as m5
T6 chain: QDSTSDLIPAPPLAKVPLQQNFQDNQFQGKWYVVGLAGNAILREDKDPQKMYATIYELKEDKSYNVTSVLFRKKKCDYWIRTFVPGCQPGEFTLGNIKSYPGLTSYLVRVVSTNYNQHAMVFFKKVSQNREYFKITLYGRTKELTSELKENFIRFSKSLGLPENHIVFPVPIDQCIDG

B1: anti-NGAL monoclonal antibody 1-2322-455 (antibody, V domains shown)
VH: EVQLVESGGGLVQPGGSLKLSCAASGFTFNNYYMSWVRQTPERRLEWVAYISSSGGSTYYSDSVRGRFTISRDTARNTLYLQMTSLKSEDTAMYYCARHFGDYSYFDYWGQGTTLTVSS
VL: DIQMTQSPASLSASVGETVTITCRASENFYSYLAWYQQKQGKSPQLLVYNAKTLAEGVPSRFSGSGSGTQFSLKINSLQPEDFGTYYCQHHYDIPLTFGAGTKLELKR
B2: anti-NGAL monoclonal antibody 1-903-430 (antibody, V domains shown)
VH: KIQLVQSGPELKKPGETVKISCKASGYTFTNYGMNWVKQAPGKGLKWMGWININTGEPTYAEEFKGRFAFSLETSATTAFLQINNLKNEDTATYLCARDSYSGGFDYWGQGTIVTVSS
VL: DIVMTQSPSSLSVSAGEKVTLSCKSSQSLLISGDQKNYLAWYQQKPGQPPKLLIYGASTRDSGVPDRFTGSGSGADFTLTISSVQAEDLAVYYCQNDHSFPPTFGAGTKLELKR

Experiments:
[1] = biological target: T1, human NGAL (C87S) produced in E. coli, …; assay: fluorescence quenching titration in solution: ALEXA 488-labelled mAb at 0.05 nM, BHQ-labelled NGAL varied, fraction bound against free BHQ-NGAL
Description: The equilibrium dissociation constants (KD) of NGAL and six anti-NGAL antibodies were measured in direct binding experiments. […] After 30 minutes incubation, all samples were measured on an SLM 8100 photon counting spectrofluorimeter. Samples were excited at 480 nm, and the emission was collected through a 530 nm (30 nm bandwidth) interference filter (Chroma Technology Corp., Rockingham, Vt.). All binding measurements were performed in 10 mM HEPES buffer, pH 7.4, containing 0.15 M NaCl, 3 mM EDTA, and 0.005% surfactant P20.
where Ligandₜₒₜₐₗ and ABSₜₒₜₐₗ are the BHQ-NGAL concentration and total antibody binding sites, respectively, and Fbound is the fraction of bound antibody sites. The binding data were fitted with a simple binding model to obtain the equilibrium dissociation constant (KD) according to equation [4]: […]

[2] = biological target: T1, human NGAL (C87S) produced in E. coli, …; assay: DC-FCCS sandwich formation in solution; second antibody mAb 809
Description: Samples were placed in a 96-microwell optical bottom plate (Nalge Nunc International, Rochester, N.Y.). The excitation wavelength was set at 810 nm, 3 mW on the sample. Sampling rate was set at 200 KHz and 10 million points were collected for each measurement. Each sample was measured twice. Experiments were performed on each sample after one-hour incubation.
Labeled antibodies were mixed at equal concentration (40 μL of 10 nM mAbs) and ligand (15 nM NGAL) was added to the solution. Cross-correlation curves before and after adding NGAL were calculated from the data sets acquired in each channel and the data were normalized.
For illustration purposes, a relative number was assigned to each antibody pair, which, in fact, is the ratio of Gx(0) values before and after the addition of NGAL to the antibodies (Table 13). All ratio values were corrected for the background. A value of “1” indicates no sandwich formation, values between 1.1 and 2.5 indicate a poor sandwich formation, and all values above 2.6 indicate productive antibody pairing.

[3] = biological target: T2, NGAL rAg S112A displayed on yeast; assay: flow cytometry titration of the mAb on yeast displaying the NGAL antigen, detection with GaM-PE, fractional binding
[4] = biological target: T7, wild-type NGAL antigen displayed on yeast (AGA2 fusion) (human, UniProt P80188 21-198); assay: as above
T7 construct: also called WT

[5] = biological target: T3, NGAL rAg Q117A displayed on yeast; assay: as above
[6] = biological target: T4, NGAL rAg H118A displayed on yeast; assay: as above
[7] = biological target: T5, NGAL rAg S158A displayed on yeast; assay: as above
[8] = biological target: T7, wild-type NGAL antigen displayed on …; assay: as above; remark: listed apart in the source
[9] = biological target: T6, NGAL rAg S14A displayed on yeast; assay: as above

| Binder | EC50 (read off the curve) [1] [nM] | ratio of Gx(0) before and after adding NGAL [2] | EC50 (read off the curve) [3] [nM] | EC50 (read off the curve) [4] [nM] | EC50 (read off the curve) [5] [nM] | EC50 (read off the curve) [6] [nM] | EC50 (read off the curve) [7] [nM] | EC50 (read off the curve) [8] [nM] | EC50 (read off the curve) [9] [nM] |
| --- | --- | --- | --- | --- | --- | --- | --- | --- | --- |
| B1 | ~0.06 | 1.5 | ~0.1 | ~0.006 | ~0.03 | ~0.2 |  |  |  |
| B2 | ~1 | 3 |  |  |  |  | ~0.2 | ~0.2 | ~0.3 |
